In the supplement of paper PMC10724198:
± gives the standard deviation of the averaged measurements.

System: Saccharomyces cerevisiae
Test: protein stability index of tFT-peptide fusion (C-terminal peptide) (PSI (0-1 scale)); higher = more stable (slower turnover)
Details: genetic background: wild type; temperature: 30 C
Protocol: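 Multiplexed protein stability (MPS) profiling in S. cerevisiae. Random 12-aa peptides (tFT-X12 library) are fused to the C-terminus of a sfGFP-mCherry tandem fluorescent timer, after mCherry and a GGGS linker. Cells are FACS-sorted into 8 mCherry/sfGFP bins and deep-sequenced. The protein stability index (PSI) is the read-weighted bin average, scaled from 0 (unstable) to 1 (stable). Only peptides with >10 reads are reported; cells were grown at 30 °C in SC-His with glucose.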
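Also: PSI is a weighted mean of sequencing reads over stability bins, variants kept only with over 10 reads, mCherry proximal and sfGFP distal, peptide attached via GGGS linker.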

Sequence	protein stability index
ANAPQAEHASVL	0.699 ± 0.021
AYRLWQTESKFD	0.699 ± 0.057
HHTDSLRPTAPH	0.73 ± 0.054
GGGGEVARSAHR	0.6696 ± 0.0056
RSDEGHDVLCLY	0.615 ± 0.083
PPSPPPTPFPPS	0.651 ± 0.1
SSDSVPIVVGVV	0.66 ± 0.056
SLIPSRSLGFLH	0.65 ± 0.05
GNCGLLSLYTLF	0.503 ± 0.023
VAGAVGSAQFER	0.649 ± 0.13
GRFGGLLRKVLG	0.678 ± 0.15
LFAPPACLPSPA	0.64 ± 0.014
SLALASTLRLPP	0.69 ± 0.047
PKLAELKKISDR	0.68 ± 0.063
RLLSGLAHRATR	0.672 ± 0.032
PGGQLRSHPPNV	0.718 ± 0.013
ALYLFHAPRTPP	0.637 ± 0.014
GAGWLSWEGGGD	0.686 ± 0.04
KLEERIKRTEDK	0.7219 ± 0.0018
VCFSPVARRDVY	0.771 ± 0.049
SMVGYPLPVSRN	0.671 ± 0.039
RSGLVRSLPLLL	0.664 ± 0.069
LGLEALRETSQP	0.6448 ± 0.005
IFPSIPTLLPPS	0.701 ± 0.041
PQVNSNQIRAPD	0.677 ± 0.021

Sequence	protein stability index
FASLVVSYGAGY	0.6712 ± 0.0019
LPTPTPPPALRS	0.689 ± 0.053
SVRGWMILCTGM	0.562 ± 0.049
LERTTSNKYEER	0.7234 ± 0.0061
PTTFLSPPSPPS	0.71 ± 0.011
IVMGVGCYTGRP	0.74 ± 0.036
SRRSKDRAGVWV	0.642 ± 0.0079
ASGGWGVGCPGV	0.716 ± 0.041
GVGGEGRNDALI	0.635 ± 0.037
PADSRGNSPPPQ	0.675 ± 0.055
YQCGRRVGSACD	0.645 ± 0.023
STPLRNLEITIA	0.679 ± 0.15
PPLPPPCPLPRN	0.7711 ± 0.0013
PPPFPLLSPPPL	0.808 ± 0.0097
PRYPLLPAHTLI	0.705 ± 0.029
LPSSPFPPLPVT	0.6889 ± 0.0042
QDECPRTTQGRV	0.656 ± 0.04
FVLSVDLSVEGS	0.585 ± 0.037
PPPPPPSISPSP	0.5389 ± 0.0053
CVQCRRPSEWLV	0.698 ± 0.033
PPTNTPTPPSYV	0.691 ± 0.025
FPAPPPPPRPAS	0.69 ± 0.033
RRRGRAEREPSS	0.689 ± 0.05
ITGSRVQVYIGR	0.693 ± 0.021
EVGQLQPNGGWV	0.661 ± 0.033

Sequence	protein stability index
KRWKSKYELGST	0.68 ± 0.063
TKKETRDKKVER	0.721 ± 0.0086
TVNIIREEKAGG	0.68 ± 0.031
GGGLGGVRGGVR	0.628 ± 0.074
PPPAPAPPLTSS	0.71 ± 0.023
PPPSSPPPPAPL	0.694 ± 0.035
LCPSFAIALSSD	0.692 ± 0.013
SWGEVRRRGCSV	0.637 ± 0.0065
IGSLCTPVCQCS	0.607 ± 0.019
FFPLSALFARPS	0.676 ± 0.0073
DTSRGDWEVFLI	0.713 ± 0.061
YGLAGFLWGCGE	0.799 ± 0.051
GGGGGERGRGGS	0.708 ± 0.02
HPPTPPPPFPPP	0.659 ± 0.018
SIKDKFIVITLK	0.629 ± 0.11
PPALHPPPLPPR	0.646 ± 0.028
YQLRRGDSSLTE	0.677 ± 0.085
GPPSRPPRRTAP	0.707 ± 0.14
ISVRAVDFGIAG	0.68 ± 0.033
CLSAPFRSLLFL	0.585 ± 0.051
PPPLLTSSPPPR	0.712 ± 0.025
PPSSPTRPSSPL	0.736 ± 0.051
LGGGGVGVGSLV	0.679 ± 0.014
EQRNLELSGHIC	0.725 ± 0.12
SFYSSPTVPFLP	0.717 ± 0.044

Sequence	protein stability index
KKKNEAKKKKTK	0.744 ± 0.058
KYEKILLTVAPE	0.672 ± 0.019
VYHFPDLFPLGI	0.7078 ± 0.0027
VVILGSMHLCSV	0.561 ± 0.016
PSLSVPERSPSL	0.7 ± 0.041
SAPALPCQSPRL	0.696 ± 0.011
AGLGLGRVNVMP	0.743 ± 0.03
IYCWGVSFGWLR	0.68 ± 0.021
RIGYGEGWKKGG	0.695 ± 0.067
EGVGRRICSPQA	0.648 ± 0.031
CFGYRGAPFCGQ	0.669 ± 0.063
PRRSSSPPLLSP	0.784 ± 0.0088
GGGGLDGYGGGG	0.69 ± 0.029
GTSPSSVRPLCG	0.7043 ± 0.0069
NGPDAKTIEVRQ	0.658 ± 0.048
GGVRGVRGRGVG	0.639 ± 0.049
SGTRIQFRLGMS	0.723 ± 0.064
PISIAVPCVLPP	0.6654 ± 0.00093
VIGGGRVLGIGG	0.653 ± 0.1
GFIYRLCRISIP	0.635 ± 0.025
TAVGRKWCGRVL	0.695 ± 0.028
FSARCGGGLDWS	0.722 ± 0.038
QWPNPEVLVRST	0.70875 ± 0.00048
